Changes are numbered by the printed parent chain. In names and notes the source's numbering stands.
B1: target 1 MT 5'PFS ACA 3'PFS CAU (mixed)
RNA 1: CACCCGUGCAAAAAUGCAGGGGUCUAAAACUGAGCGGAUAACCUCUCUAUGG
RNA 2: GGGAAUGGAUCCACAUCUACGAAUUCACACCAUAGAGAGGUUAUCCGCUCACAUAGAUCGGAAGAGCACACGU
B2: target 1 MT 5'PFS CCA 3'PFS ACG (mixed)
RNA 1: B1 RNA 1
RNA 2: B1 RNA 2 with A27C, C52A, A53C, U54G
B3: target 1 MT 5'PFS GGU 3'PFS UCC (mixed)
RNA 1: B1 RNA 1
RNA 2: B1 RNA 2 with A27G, C28G, A29U, C52U, A53C, U54C
B4: target 1 MT 5'PFS AAG 3'PFS AUG (mixed)
RNA 1: B1 RNA 1
RNA 2: B1 RNA 2 with C28A, A29G, C52A, A53U, U54G
B5: target 1 MT 5'PFS GUC 3'PFS CGG (mixed)
RNA 1: B1 RNA 1
RNA 2: B1 RNA 2 with A27G, C28U, A29C, A53G, U54G
B6: target 1 MT 5'PFS AAG 3'PFS AUA (mixed)
RNA 1: B1 RNA 1
RNA 2: B1 RNA 2 with C28A, A29G, C52A, A53U, U54A
B7: target 1 MT 5'PFS CCG 3'PFS CUC (mixed)
RNA 1: B1 RNA 1
RNA 2: B1 RNA 2 with A27C, A29G, A53U, U54C
B8: target 1 MT 5'PFS GCG 3'PFS ACG (mixed)
RNA 1: B1 RNA 1
RNA 2: B1 RNA 2 with A27G, A29G, C52A, A53C, U54G
B9: target 1 C2A,A18C (mixed)
RNA 1: B1 RNA 1
RNA 2: B1 RNA 2 with A27G, C28U, A34C, C50A, A53C, U54G
B10: target 1 MT 5'PFS GCC 3'PFS AAU (mixed)
RNA 1: B1 RNA 1
RNA 2: B1 RNA 2 with A27G, A29C, C52A
B11: target 1 MT 5'PFS UCA 3'PFS UAG (mixed)
RNA 1: B1 RNA 1
RNA 2: B1 RNA 2 with A27U, C52U, U54G
B12: target 1 MT 5'PFS GAG 3'PFS UUA (mixed)
RNA 1: B1 RNA 1
RNA 2: B1 RNA 2 with A27G, C28A, A29G, C52U, A53U, U54A
B13: target 1 MT 5'PFS CUA 3'PFS AUU (mixed)
RNA 1: B1 RNA 1
RNA 2: B1 RNA 2 with A27C, C28U, C52A, A53U
B14: target 1 MT 5'PFS GCG 3'PFS ACU (mixed)
RNA 1: B1 RNA 1
RNA 2: B1 RNA 2 with A27G, A29G, C52A, A53C
B15: target 1 MT 5'PFS GCC 3'PFS AAG (mixed)
RNA 1: B1 RNA 1
RNA 2: B1 RNA 2 with A27G, A29C, C52A, U54G
B16: target 1 MT 5'PFS GUC 3'PFS CGC (mixed)
RNA 1: B1 RNA 1
RNA 2: B1 RNA 2 with A27G, C28U, A29C, A53G, U54C
B17: target 1 MT 5'PFS GGU 3'PFS UCA (mixed)
RNA 1: B1 RNA 1
RNA 2: B1 RNA 2 with A27G, C28G, A29U, C52U, A53C, U54A
B18: target 1 MT 5'PFS GCA 3'PFS CUU (mixed)
RNA 1: B1 RNA 1
RNA 2: B1 RNA 2 with A27G, A53U
B19: target 1 MT 5'PFS UCA 3'PFS UAA (mixed)
RNA 1: B1 RNA 1
RNA 2: B1 RNA 2 with A27U, C52U, U54A
B20: target 1 MT 5'PFS GCA 3'PFS CUA (mixed)
RNA 1: B1 RNA 1
RNA 2: B1 RNA 2 with A27G, A53U, U54A
B21: target 1 MT 5'PFS GCC 3'PFS AAA (mixed)
RNA 1: B1 RNA 1
RNA 2: B1 RNA 2 with A27G, A29C, C52A, U54A
B22: target 1 MT 5'PFS GUC 3'PFS CGA (mixed)
RNA 1: B1 RNA 1
RNA 2: B1 RNA 2 with A27G, C28U, A29C, A53G, U54A
B23: target 1 MT 5'PFS AAG 3'PFS AUC (mixed)
RNA 1: B1 RNA 1
RNA 2: B1 RNA 2 with C28A, A29G, C52A, A53U, U54C
B24: target 1 MT 5'PFS GCG 3'PFS ACA (mixed)
RNA 1: B1 RNA 1
RNA 2: B1 RNA 2 with A27G, A29G, C52A, A53C, U54A
B25: target 1 MT 5'PFS GCC 3'PFS CCG (mixed)
RNA 1: B1 RNA 1
RNA 2: B1 RNA 2 with A27G, A29C, A53C, U54G
B26: target 1 MT 5'PFS CCA 3'PFS ACU (mixed)
RNA 1: B1 RNA 1
RNA 2: B1 RNA 2 with A27C, C52A, A53C
B27: target 1 MT 5'PFS CUA 3'PFS AUC (mixed)
RNA 1: B1 RNA 1
RNA 2: B1 RNA 2 with A27C, C28U, C52A, A53U, U54C
B28: target 1 MT 5'PFS CCG 3'PFS CUA (mixed)
RNA 1: B1 RNA 1
RNA 2: B1 RNA 2 with A27C, A29G, A53U, U54A
B29: target 1 MT 5'PFS GCU 3'PFS ACC (mixed)
RNA 1: B1 RNA 1
RNA 2: B1 RNA 2 with A27G, A29U, C52A, A53C, U54C
B30: target 1 MT 5'PFS GUC 3'PFS CGU (mixed)
RNA 1: B1 RNA 1
RNA 2: B1 RNA 2 with A27G, C28U, A29C, A53G
B31: target 1 MT 5'PFS CUA 3'PFS AUA (mixed)
RNA 1: B1 RNA 1
RNA 2: B1 RNA 2 with A27C, C28U, C52A, A53U, U54A
B32: target 1 MT 5'PFS GCC 3'PFS AAC (mixed)
RNA 1: B1 RNA 1
RNA 2: B1 RNA 2 with A27G, A29C, C52A, U54C
B33: target 1 U11G,G12U (mixed)
RNA 1: B1 RNA 1
RNA 2: B1 RNA 2 with A27G, C28U, G40U, U41G, A53C, U54G
B34: target 1 MT 5'PFS GCU 3'PFS ACG (mixed)
RNA 1: B1 RNA 1
RNA 2: B1 RNA 2 with A27G, A29U, C52A, A53C, U54G
B35: target 1 MT 5'PFS GCU 3'PFS ACU (mixed)
RNA 1: B1 RNA 1
RNA 2: B1 RNA 2 with A27G, A29U, C52A, A53C
B36: target 1 MT 5'PFS CCG 3'PFS CUG (mixed)
RNA 1: B1 RNA 1
RNA 2: B1 RNA 2 with A27C, A29G, A53U, U54G
B37: target 1 MT 5'PFS GAG 3'PFS UUC (mixed)
RNA 1: B1 RNA 1
RNA 2: B1 RNA 2 with A27G, C28A, A29G, C52U, A53U, U54C
B38: target 1 insG 3' of 18,insC 3' of 13 (mixed)
RNA 1: B1 RNA 1
RNA 2: GGGAAUGGAUCCACAUCUACGAAUUCGUACCAUAGGAGAGCGUUAUCCGCUCACCGAGAUCGGAAGAGCACACGU
B39: target 1 insG 3' of 22,insC 3' of 14 (mixed)
RNA 1: B1 RNA 1
RNA 2: B38 RNA 2 with C31G, A32C, U33A, A34U, G35A, G40C, C41G
B40: target 1 MT 5'PFS GCC 3'PFS CCA (mixed)
RNA 1: B1 RNA 1
RNA 2: B1 RNA 2 with A27G, A29C, A53C, U54A

Target: T1, EsCas13d, nuclease-dead (Eubacterium siraeum, UniProt B0MS50, R295A;H300A;R849A;H854A)
T1 sequence: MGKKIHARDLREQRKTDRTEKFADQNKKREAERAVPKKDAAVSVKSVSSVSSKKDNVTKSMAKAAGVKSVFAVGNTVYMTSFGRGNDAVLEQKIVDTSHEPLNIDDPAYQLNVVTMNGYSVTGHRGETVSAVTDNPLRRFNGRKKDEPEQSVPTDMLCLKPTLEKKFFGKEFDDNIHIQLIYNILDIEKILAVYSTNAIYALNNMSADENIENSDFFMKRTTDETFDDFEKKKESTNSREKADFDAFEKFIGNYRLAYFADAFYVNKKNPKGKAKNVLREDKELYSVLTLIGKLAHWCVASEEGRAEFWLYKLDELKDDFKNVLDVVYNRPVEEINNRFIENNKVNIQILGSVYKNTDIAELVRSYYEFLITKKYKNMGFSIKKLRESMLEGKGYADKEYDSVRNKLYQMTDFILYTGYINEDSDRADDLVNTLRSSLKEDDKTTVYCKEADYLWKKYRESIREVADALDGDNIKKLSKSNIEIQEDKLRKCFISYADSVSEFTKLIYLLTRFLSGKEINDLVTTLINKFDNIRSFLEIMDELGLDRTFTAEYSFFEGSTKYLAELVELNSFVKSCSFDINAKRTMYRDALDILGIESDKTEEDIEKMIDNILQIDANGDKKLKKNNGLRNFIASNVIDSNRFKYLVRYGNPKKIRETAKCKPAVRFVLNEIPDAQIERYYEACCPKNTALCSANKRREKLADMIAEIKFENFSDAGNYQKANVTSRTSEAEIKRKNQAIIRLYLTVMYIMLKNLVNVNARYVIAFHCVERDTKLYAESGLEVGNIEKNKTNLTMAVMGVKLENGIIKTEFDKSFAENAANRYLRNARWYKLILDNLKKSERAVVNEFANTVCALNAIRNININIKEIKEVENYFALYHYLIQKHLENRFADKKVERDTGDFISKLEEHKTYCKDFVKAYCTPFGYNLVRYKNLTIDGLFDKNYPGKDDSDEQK
Assay: crRNA (strand 1, pre-loaded); Mg2+; 40 mM Tris-HCl pH 7.5, 150 mM NaCl, 6 mM MgCl2, 1 mM DTT, 0.1% Tween-20, 0.2 mg/ml BSA; 25 C; 10 min per concentration, then washed
Settings: tags: His6-TwinStrep-SUMO cleaved; N-terminal SNAP kept (SNAP-Surface 488); label: 3' end held by stalled T7 RNA polymerase

| Binder | Kd |
| --- | --- |
| B1 | ~20 nM |
| B2 | 3.95 ± 1.6 nM |
| B3 | 21 ± 5.5 nM |
| B4 | 33 ± 8.5 nM |
| B5 | 28.5 ± 7 nM |
| B6 | 26.6 ± 7.15 nM |
| B7 | 3.15 ± 1 nM |
| B8 | 49.5 ± 10 nM |
| B9 | 47.9 ± 3.3 nM |
| B10 | ~27 nM |
| B11 | ~50 nM |
| B12 | 36 ± 9 nM |
| B13 | 6.05 ± 1.65 nM |
| B14 | 18.2 ± 3.9 nM |
| B15 | 28 ± 6.5 nM |
| B16 | 22 ± 4.5 nM |
| B17 | 44 ± 19 nM |
| B18 | 11.8 ± 2.55 nM |
| B19 | 9.45 ± 3.3 nM |
| B20 | 18.4 ± 4.7 nM |

| Binder | Kd |
| --- | --- |
| B21 | 59.5 ± 19 nM |
| B22 | 19.5 ± 4 nM |
| B23 | 26.5 ± 10 nM |
| B24 | 32.5 ± 14.5 nM |
| B25 | 12.9 ± 3.15 nM |
| B26 | 14 ± 5.5 nM |
| B27 | 14.2 ± 3.1 nM |
| B28 | 7.9 ± 2.9 nM |
| B29 | 43 ± 14.5 nM |
| B30 | 13.2 ± 1.9 nM |
| B31 | 7.15 ± 1.5 nM |
| B32 | 23 ± 7.5 nM |
| B33 | ~50 nM |
| B34 | 43.5 ± 10.5 nM |
| B35 | 33 ± 11 nM |
| B36 | 1.95 ± 0.465 nM |
| B37 | 37 ± 11 nM |
| B38 | 70 ± 24 nM |
| B39 | 41 ± 17 nM |
| B40 | 95 ± 40 nM |
